Reference: patent publication US20190177366A1 (published 2019)
Bridge positions count the residues as written; N and C are the ends. Square brackets hold non-standard residues; d marks the D form.

B1: Compound 71 (peptide)
peptide: Ac-CRLPWNLQRAGLPC-NH2
modifications: disulfide 1-14
SMILES: CC(=O)N[C@H]1CSSC[C@@H](C(N)=O)NC(=O)[C@@H]2CCCN2C(=O)[C@H](CC(C)C)NC(=O)CNC(=O)[C@H](C)NC(=O)[C@H](CCCNC(=N)N)NC(=O)[C@H](CCC(N)=O)NC(=O)[C@H](CC(C)C)NC(=O)[C@H](CC(N)=O)NC(=O)[C@H](Cc2c[nH]c3ccccc23)NC(=O)[C@@H]2CCCN2C(=O)[C@H](CC(C)C)NC(=O)[C@H](CCCNC(=N)N)NC1=O
B2: Compound 76 (peptide)
peptide: Ac-CRLPANLQRIGLPC-NH2
modifications: disulfide 1-14
SMILES: CC[C@H](C)[C@@H]1NC(=O)[C@H](CCCNC(=N)N)NC(=O)[C@H](CCC(N)=O)NC(=O)[C@H](CC(C)C)NC(=O)[C@H](CC(N)=O)NC(=O)[C@H](C)NC(=O)[C@@H]2CCCN2C(=O)[C@H](CC(C)C)NC(=O)[C@H](CCCNC(=N)N)NC(=O)[C@@H](NC(C)=O)CSSC[C@@H](C(N)=O)NC(=O)[C@@H]2CCCN2C(=O)[C@H](CC(C)C)NC(=O)CNC1=O
B3: Compound 77 (peptide)
peptide: Ac-CRLAWNLQRIGLPC-NH2
modifications: disulfide 1-14
SMILES: CC[C@H](C)[C@@H]1NC(=O)[C@H](CCCNC(=N)N)NC(=O)[C@H](CCC(N)=O)NC(=O)[C@H](CC(C)C)NC(=O)[C@H](CC(N)=O)NC(=O)[C@H](Cc2c[nH]c3ccccc23)NC(=O)[C@H](C)NC(=O)[C@H](CC(C)C)NC(=O)[C@H](CCCNC(=N)N)NC(=O)[C@@H](NC(C)=O)CSSC[C@@H](C(N)=O)NC(=O)[C@@H]2CCCN2C(=O)[C@H](CC(C)C)NC(=O)CNC1=O
B4: Compound 72 (peptide)
peptide: Ac-CRLPWNLQAIGLPC-NH2
modifications: disulfide 1-14
SMILES: CC[C@H](C)[C@@H]1NC(=O)[C@H](C)NC(=O)[C@H](CCC(N)=O)NC(=O)[C@H](CC(C)C)NC(=O)[C@H](CC(N)=O)NC(=O)[C@H](Cc2c[nH]c3ccccc23)NC(=O)[C@@H]2CCCN2C(=O)[C@H](CC(C)C)NC(=O)[C@H](CCCNC(=N)N)NC(=O)[C@@H](NC(C)=O)CSSC[C@@H](C(N)=O)NC(=O)[C@@H]2CCCN2C(=O)[C@H](CC(C)C)NC(=O)CNC1=O
B5: Compound 75 (peptide)
peptide: Ac-CRLPWALQRIGLPC-NH2
modifications: disulfide 1-14
SMILES: CC[C@H](C)[C@@H]1NC(=O)[C@H](CCCNC(=N)N)NC(=O)[C@H](CCC(N)=O)NC(=O)[C@H](CC(C)C)NC(=O)[C@H](C)NC(=O)[C@H](Cc2c[nH]c3ccccc23)NC(=O)[C@@H]2CCCN2C(=O)[C@H](CC(C)C)NC(=O)[C@H](CCCNC(=N)N)NC(=O)[C@@H](NC(C)=O)CSSC[C@@H](C(N)=O)NC(=O)[C@@H]2CCCN2C(=O)[C@H](CC(C)C)NC(=O)CNC1=O
B6: Compound 74 (peptide)
peptide: Ac-CRLPWNAQRIGLPC-NH2
modifications: disulfide 1-14
SMILES: CC[C@H](C)[C@@H]1NC(=O)[C@H](CCCNC(=N)N)NC(=O)[C@H](CCC(N)=O)NC(=O)[C@H](C)NC(=O)[C@H](CC(N)=O)NC(=O)[C@H](Cc2c[nH]c3ccccc23)NC(=O)[C@@H]2CCCN2C(=O)[C@H](CC(C)C)NC(=O)[C@H](CCCNC(=N)N)NC(=O)[C@@H](NC(C)=O)CSSC[C@@H](C(N)=O)NC(=O)[C@@H]2CCCN2C(=O)[C@H](CC(C)C)NC(=O)CNC1=O
B7: Compound 78 (peptide)
peptide: Ac-CRAPWNLQRIGLPC-NH2
modifications: disulfide 1-14
SMILES: CC[C@H](C)[C@@H]1NC(=O)[C@H](CCCNC(=N)N)NC(=O)[C@H](CCC(N)=O)NC(=O)[C@H](CC(C)C)NC(=O)[C@H](CC(N)=O)NC(=O)[C@H](Cc2c[nH]c3ccccc23)NC(=O)[C@@H]2CCCN2C(=O)[C@H](C)NC(=O)[C@H](CCCNC(=N)N)NC(=O)[C@@H](NC(C)=O)CSSC[C@@H](C(N)=O)NC(=O)[C@@H]2CCCN2C(=O)[C@H](CC(C)C)NC(=O)CNC1=O
B8: Compound 79 (peptide)
peptide: Ac-CALPWNLQRIGLPC-NH2
modifications: disulfide 1-14
SMILES: CC[C@H](C)[C@@H]1NC(=O)[C@H](CCCNC(=N)N)NC(=O)[C@H](CCC(N)=O)NC(=O)[C@H](CC(C)C)NC(=O)[C@H](CC(N)=O)NC(=O)[C@H](Cc2c[nH]c3ccccc23)NC(=O)[C@@H]2CCCN2C(=O)[C@H](CC(C)C)NC(=O)[C@H](C)NC(=O)[C@@H](NC(C)=O)CSSC[C@@H](C(N)=O)NC(=O)[C@@H]2CCCN2C(=O)[C@H](CC(C)C)NC(=O)CNC1=O
B9: Compound 73 (peptide)
peptide: Ac-CRLPWNLARIGLPC-NH2
modifications: disulfide 1-14
SMILES: CC[C@H](C)[C@@H]1NC(=O)[C@H](CCCNC(=N)N)NC(=O)[C@H](C)NC(=O)[C@H](CC(C)C)NC(=O)[C@H](CC(N)=O)NC(=O)[C@H](Cc2c[nH]c3ccccc23)NC(=O)[C@@H]2CCCN2C(=O)[C@H](CC(C)C)NC(=O)[C@H](CCCNC(=N)N)NC(=O)[C@@H](NC(C)=O)CSSC[C@@H](C(N)=O)NC(=O)[C@@H]2CCCN2C(=O)[C@H](CC(C)C)NC(=O)CNC1=O
B10: Compound 81 (peptide)
peptide: Ac-CRLPWNLQRIGGGC-NH2
modifications: disulfide 1-14
SMILES: CC[C@H](C)[C@@H]1NC(=O)[C@H](CCCNC(=N)N)NC(=O)[C@H](CCC(N)=O)NC(=O)[C@H](CC(C)C)NC(=O)[C@H](CC(N)=O)NC(=O)[C@H](Cc2c[nH]c3ccccc23)NC(=O)[C@@H]2CCCN2C(=O)[C@H](CC(C)C)NC(=O)[C@H](CCCNC(=N)N)NC(=O)[C@@H](NC(C)=O)CSSC[C@@H](C(N)=O)NC(=O)CNC(=O)CNC(=O)CNC1=O
B11: Compound 80 (peptide)
peptide: Ac-CRLPWNLQRIGLGC-NH2
modifications: disulfide 1-14
SMILES: CC[C@H](C)[C@@H]1NC(=O)[C@H](CCCNC(=N)N)NC(=O)[C@H](CCC(N)=O)NC(=O)[C@H](CC(C)C)NC(=O)[C@H](CC(N)=O)NC(=O)[C@H](Cc2c[nH]c3ccccc23)NC(=O)[C@@H]2CCCN2C(=O)[C@H](CC(C)C)NC(=O)[C@H](CCCNC(=N)N)NC(=O)[C@@H](NC(C)=O)CSSC[C@@H](C(N)=O)NC(=O)CNC(=O)[C@H](CC(C)C)NC(=O)CNC1=O
B12: Compound 99 (peptide)
peptide: Ac-CRLPWNLQRIGL[dP]C-NH2
modifications: disulfide 1-14
SMILES: CC[C@H](C)[C@@H]1NC(=O)[C@H](CCCNC(=N)N)NC(=O)[C@H](CCC(N)=O)NC(=O)[C@H](CC(C)C)NC(=O)[C@H](CC(N)=O)NC(=O)[C@H](Cc2c[nH]c3ccccc23)NC(=O)[C@@H]2CCCN2C(=O)[C@H](CC(C)C)NC(=O)[C@H](CCCNC(=N)N)NC(=O)[C@@H](NC(C)=O)CSSC[C@@H](C(N)=O)NC(=O)[C@H]2CCCN2C(=O)[C@H](CC(C)C)NC(=O)CNC1=O

target: T1, His-tagged, full-length PCSK9 (human, UniProt A8T644 31-152; Q8NBP7 153-692); assay: TR-FRET competition; competitor EGF(A)-Fc on His-PCSK9
T1 construct: Target protein of the PCSK9/EGF(A) TR-FRET assay (10 nM); also called His-PCSK9; proprotein convertase subtilisin/kexin type 9
T1 sequence (A8T644 31-152 limits assumed, chain 1 of 2): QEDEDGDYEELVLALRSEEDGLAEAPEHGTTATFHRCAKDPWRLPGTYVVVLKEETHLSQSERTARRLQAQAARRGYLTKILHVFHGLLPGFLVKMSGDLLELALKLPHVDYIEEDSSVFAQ
T1 sequence (A8T644 other isoform, or with tags, fused parts or gaps limits assumed, chain 2 of 2): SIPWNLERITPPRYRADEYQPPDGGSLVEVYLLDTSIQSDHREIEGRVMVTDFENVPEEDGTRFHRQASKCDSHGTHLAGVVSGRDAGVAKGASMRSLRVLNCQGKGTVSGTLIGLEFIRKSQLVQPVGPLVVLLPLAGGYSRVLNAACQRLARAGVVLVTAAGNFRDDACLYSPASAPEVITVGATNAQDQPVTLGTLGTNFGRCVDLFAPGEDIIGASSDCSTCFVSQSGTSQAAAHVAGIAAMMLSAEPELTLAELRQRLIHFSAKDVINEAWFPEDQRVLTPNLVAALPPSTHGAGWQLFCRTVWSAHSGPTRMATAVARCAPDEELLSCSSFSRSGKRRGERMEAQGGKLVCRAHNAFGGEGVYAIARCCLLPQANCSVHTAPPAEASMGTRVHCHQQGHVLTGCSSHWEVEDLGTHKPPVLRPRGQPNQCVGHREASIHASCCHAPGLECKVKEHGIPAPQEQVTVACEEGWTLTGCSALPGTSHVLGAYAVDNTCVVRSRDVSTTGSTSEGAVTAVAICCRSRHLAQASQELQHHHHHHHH

Row | IC50 | Binder
1 | > 50 µM | B1
2 | > 50 µM | B2
3 | > 50 µM | B3
4 | > 50 µM | B4
5 | > 50 µM | B5
6 | > 50 µM | B6
7 | > 50 µM | B7
8 | > 50 µM | B8
9 | > 50 µM | B9
10 | > 50 µM | B10
11 | > 50 µM | B11
12 | > 50 µM | B12
